Test results taken from paper PMC11059001 (2024).

Molecular target: complement C1q (human, UniProt P02745;P02746;P02747)
Assay: MST

Sequence of complement C1q (P02745 23-245, chain 1 of 3): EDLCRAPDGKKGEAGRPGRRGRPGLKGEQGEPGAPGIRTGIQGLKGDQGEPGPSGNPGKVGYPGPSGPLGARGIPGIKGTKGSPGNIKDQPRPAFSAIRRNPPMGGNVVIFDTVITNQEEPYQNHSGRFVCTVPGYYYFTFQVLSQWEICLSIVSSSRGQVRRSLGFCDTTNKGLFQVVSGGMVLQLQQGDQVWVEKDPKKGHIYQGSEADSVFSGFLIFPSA
Sequence of complement C1q (P02746 28-253, chain 2 of 3): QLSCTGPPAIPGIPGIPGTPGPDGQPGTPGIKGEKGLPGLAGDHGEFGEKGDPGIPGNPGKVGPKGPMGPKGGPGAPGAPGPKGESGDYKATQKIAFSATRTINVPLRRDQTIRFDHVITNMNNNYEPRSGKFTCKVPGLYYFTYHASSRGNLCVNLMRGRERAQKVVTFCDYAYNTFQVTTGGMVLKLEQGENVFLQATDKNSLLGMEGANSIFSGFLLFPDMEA
Sequence of complement C1q (P02747 29-245, chain 3 of 3): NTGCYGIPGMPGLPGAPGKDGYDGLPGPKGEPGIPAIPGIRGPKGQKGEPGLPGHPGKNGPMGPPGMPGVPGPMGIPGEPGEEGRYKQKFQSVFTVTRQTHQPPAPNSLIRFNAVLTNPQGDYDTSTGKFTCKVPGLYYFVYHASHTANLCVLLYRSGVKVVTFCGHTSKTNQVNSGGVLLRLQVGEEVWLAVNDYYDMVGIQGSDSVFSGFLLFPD

B1: TsCRT^Δ mutant Y132A/N158A (domain or fragment)
chain: EPTIYLKETFDDGDAWKERWVQSKHKDDYGEWQLSHGKLFADENDMGLKTMQDARFYSLSRKFDKVVDNKDKPLVIVYTVKHEQDIDCGGGYIKLMLENTDLEDFNSDTPARIMFGPDICGPEKRAVHSILWHDGKAYEKRKNAIAMADIFTHAYKLIIFPNNSYEIWVNNDKEAYGRLEDDWTMTEPGSGPVPELYRYKGLGAIGFELWQVKSGTIFDNILITDDPEYAKEFIDKQLEALRPIEKVESDK
modifications: fluorescent label RED-NHS (MO-L011 Monolith Protein Labelling Kit) in the MST assays; chain labelled not stated | fluorescent label RED-NHS (MO-L011 Monolith Protein Labelling Kit) in the MST assays; chain labelled not stated | fluorescent label RED-NHS (MO-L011 Monolith Protein Labelling Kit) in the MST assays; chain labelled not stated
Kd: 8.89 µM
